The numbers were not newly measured in paper PMC6389863, which cites them from elsewhere.

In series [1] the target is Cys25 (UniProt position 157, GSCGSCWAFSA).
Series [2] deals with Asp70 (UniProt position 70, KLFNQDVDAAV).
Series [3] has as its target Tyr149 (UniProt position 149, TPQSPYGKSKL).
Series [4] addresses Asp76 (UniProt position 102, GSPGADRVVFN).
The target of series [5] is Asp102 (UniProt position 102, LTINNDITLLK).
Series [6] has as its target Cys25 (UniProt position 158, GSCGSCWAFSA).
In series [7] the test system is Lys55.
For series [8], the target named is Lys39 (UniProt position 39, EFPGGKIEMGE).
Series [9] concerns the target His18 (UniProt position 19, KCAQCHTVEKG).
Series [10] deals with Cys87 (UniProt position 87, RLGRICLDVLK).
The target in series [11] is His72 (UniProt position 73, GINTAHKARQV).
Series [12] has as its target Asp26 (UniProt position 26, KLVVVDFSATW). Conditions: reduced (active-site dithiol) thioredoxin.
The target in series [13] is Glu73 (UniProt position 120, GRTWREADINY).
Series [14] addresses His149 (UniProt position 177, ITFTNHVNAWK).
Series [15] has as its system Tyr31.

Usually pKa stands for the pH at which an ionisable group is half protonated. Take “Papaya protease (PDB 1PPO; caricain / papaya protease omega) (Carica papaya (inferred))”: in series [1], the pKa is listed as 2.88.

Consider “T4 lysozyme (Enterobacteria phage T4 (inferred))”, for which the pKa in series [2] is reported as 0.5.

On to “UDP-galactose 4-epimerase (Escherichia coli)”, for which the pKa in series [3] is listed as 6.08.

Regarding “Ribonuclease T1 (RNase T1) (not stated (inferred Aspergillus oryzae))”, the pKa in [4] is listed as 0.5.

Take “Chymotrypsinogen A (bovine) (Bos taurus)”: the pKa in [5] is reported as 1.36.

As for Papain (Carica papaya (inferred)), the pKa in series [6] was 3.32.

Calbindin D9k (bovine) (Bos taurus): the pKa in series [7] is listed as 12.12.

Take “MutT enzyme (not stated (inferred Escherichia coli))”: the pKa in [8] is 8.4.

Cytochrome c (horse) (Equus caballus): in series [9], the pKa is listed as 2.5.

For “Ubiquitin-conjugating enzyme Ubc13 (not stated (PDB 1JBB is Saccharomyces cerevisiae Ubc13, inferred))”, the pKa in series [10] is given as 11.1.

Take “Bovine heart phosphotyrosyl phosphatase (low molecular weight PTP) (Bos taurus)”: the pKa in series [11] was 9.19.

As to “Thioredoxin (human, reduced) (Homo sapiens)”, the pKa in series [12] was 9.9.

On to “Barnase (not stated (inferred Bacillus amyloliquefaciens))”, for which, in series [13], the pKa is recorded as 2.1.

As for “Xylanase (Bacillus circulans xylanase) (Bacillus circulans (from the title of ref 20))”, the pKa in series [14] was under 2.3.

For “Ovomucoid third domain, silver pheasant (OMSVP3) (Lophura nycthemera (silver pheasant))”, in series [15], the pKa is 12.5.
